Changes are numbered by the printed parent chain.
T1: human C4.4a on transfected A549:hC4.4a cells (human, UniProt O95274 31-326)
T1 sequence: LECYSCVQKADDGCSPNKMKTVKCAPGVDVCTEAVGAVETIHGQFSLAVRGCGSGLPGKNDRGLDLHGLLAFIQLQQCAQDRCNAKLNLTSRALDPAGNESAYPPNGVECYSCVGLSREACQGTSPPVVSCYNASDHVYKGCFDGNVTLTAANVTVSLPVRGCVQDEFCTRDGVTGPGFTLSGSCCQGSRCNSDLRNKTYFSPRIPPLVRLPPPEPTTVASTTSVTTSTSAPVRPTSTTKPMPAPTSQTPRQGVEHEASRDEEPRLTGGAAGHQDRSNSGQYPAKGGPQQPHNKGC

T2: human C4.4a natively expressed on tumor cell lines (human, UniProt O95274 31-326)
T2 construct: whole, on cells; also called NCI H292; NCI H322
T2 sequence (looked up): T1 sequence

T3: murine C4.4a on transfected CHO-S:mC4.4a cells (mouse, UniProt Q91YK8 33-343)
T3 construct: full length GPI-anchored form, stably transfected; also called Mouse C4.4a:CHO; mC4.4a: CHO
T3 sequence: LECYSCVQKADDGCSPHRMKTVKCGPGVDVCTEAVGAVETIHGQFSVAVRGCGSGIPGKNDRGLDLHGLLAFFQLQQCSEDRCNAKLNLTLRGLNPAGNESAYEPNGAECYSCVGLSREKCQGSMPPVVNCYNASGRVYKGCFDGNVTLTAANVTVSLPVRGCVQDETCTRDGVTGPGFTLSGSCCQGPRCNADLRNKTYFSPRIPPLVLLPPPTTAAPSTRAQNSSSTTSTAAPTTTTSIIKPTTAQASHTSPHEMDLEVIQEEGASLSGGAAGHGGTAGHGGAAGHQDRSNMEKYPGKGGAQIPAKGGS

T4: recombinant soluble human C4.4a (human, UniProt O95274 31-308)
T4 construct: recombinant, soluble, purified protein; also called hC4.4a; full length C4.4a
T4 sequence: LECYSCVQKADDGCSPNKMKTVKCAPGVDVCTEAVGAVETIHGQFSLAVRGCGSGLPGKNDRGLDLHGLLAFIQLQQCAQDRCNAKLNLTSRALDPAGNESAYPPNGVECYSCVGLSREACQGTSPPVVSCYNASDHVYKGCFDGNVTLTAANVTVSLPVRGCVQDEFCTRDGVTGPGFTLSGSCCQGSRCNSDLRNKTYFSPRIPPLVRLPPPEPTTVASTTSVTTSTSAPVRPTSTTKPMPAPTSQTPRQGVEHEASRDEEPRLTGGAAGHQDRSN

T5: recombinant soluble murine C4.4a (mouse, UniProt Q91YK8 33-343, limits assumed)
T5 construct: also called mouse C4.4a; mC4.4a
T5 sequence (looked up): T3 sequence

B1: D02-6 (antibody, human IgG1, V domains shown)
VH: EVQLLESGGGLVQPGGSLRLSCAASGFTFSDYQMTWIRQTPGKGLEWVSGISWNGGSTHYADSVKGRFTISRDNSKNTLYLQMNSLRAEDTAVYYCAKGDYLVYSSYYFKSWGQGTLVTVSS
VL: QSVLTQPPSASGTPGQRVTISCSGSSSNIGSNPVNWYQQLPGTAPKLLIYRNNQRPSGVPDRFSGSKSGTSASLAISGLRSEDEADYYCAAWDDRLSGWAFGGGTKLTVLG
notes: tested as human IgG1; also called D02-06
B2: D02-11 (antibody, V domains shown)
VH: B1 VH
VL: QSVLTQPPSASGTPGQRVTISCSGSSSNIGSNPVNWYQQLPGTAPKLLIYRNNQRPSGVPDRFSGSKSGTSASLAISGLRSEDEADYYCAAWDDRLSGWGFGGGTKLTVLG
notes: tested as human IgG1
B3: B01-3 (antibody, human IgG1, V domains shown)
VH: EVQLLESGGGLVQPGGSLRLSCAASGFTFSNAWMSWVRQAPGKGLEWVSYISSSGSTIYYADSVKGRFTISRDNSKNTLYLQMNSLRAEDTAVYYCAREGLWAFDYWGQGTLVTVSS
VL: ESVLTQPPSVSGAPGQRVTISCTGSSSNIGAGYVVHWYQQLPGTAPKLLIYDNNKRPSGVPDRFSGSKSGTSASLAISGLRSEDEADYYCAAWDDRLNGPVFGGGTKLTVLG
notes: tested as human IgG1; also called B01-03
B4: B01-10 (antibody, human IgG1, V domains shown)
VH: B3 VH with N31S
VL: B3 VL with E1Q, W93Y, R96S, N98S
notes: tested as human IgG1
B5: D02-7 (antibody, human IgG1, V domains shown)
VH: B1 VH with S105K
VL: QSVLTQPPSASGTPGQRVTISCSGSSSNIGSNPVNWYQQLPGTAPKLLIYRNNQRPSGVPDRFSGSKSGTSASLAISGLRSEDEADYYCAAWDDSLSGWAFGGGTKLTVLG
notes: tested as human IgG1; also called D02-07
B6: B01-5 (antibody, human IgG1, V domains shown)
VH: B3 VH
VL: B3 VL with E1Q, W93Y, R96S, N98S
notes: tested as human IgG1; also called B01-05
B7: D02-13 (antibody, human IgG1, V domains shown)
VH: B1 VH with D31S, T40A, S105K
VL: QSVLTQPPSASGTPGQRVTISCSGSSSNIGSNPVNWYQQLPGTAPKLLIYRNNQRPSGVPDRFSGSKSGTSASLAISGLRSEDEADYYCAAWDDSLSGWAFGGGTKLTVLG
notes: tested as human IgG1
B8: B01-12 (antibody, V domains shown)
VH: B3 VH with N31S, T57S, I58T, Y106K
VL: B3 VL with E1Q, V10A, A13T, T23S, K55Q, W93F, N98S
notes: tested as human IgG1
B9: D02-4 (antibody, human IgG1, V domains shown)
VH: B1 VH with S106A, K110D
VL: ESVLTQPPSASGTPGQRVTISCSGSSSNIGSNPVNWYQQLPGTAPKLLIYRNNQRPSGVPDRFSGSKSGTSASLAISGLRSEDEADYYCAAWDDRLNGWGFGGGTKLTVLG
notes: tested as human IgG1; also called D02-04
B10: M20-D02 S-A Fab LC D92G (Fab, V domains shown)
VH: B1 VH with I51V, G56A, S57R, S106A, K110D, S121T
VL: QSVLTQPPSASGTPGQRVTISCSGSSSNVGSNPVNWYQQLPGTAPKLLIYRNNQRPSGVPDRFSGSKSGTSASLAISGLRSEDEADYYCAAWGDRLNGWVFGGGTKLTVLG
notes: Fab with 3×HA-tag and hexa-histidine tag at the C-terminus of the heavy chain, culture supernatant
B11: M20-D02 S-A Fab LC V97A (Fab, V domains shown)
VH: B1 VH with I51V, G56A, S57R, S106A, K110D, S121T
VL: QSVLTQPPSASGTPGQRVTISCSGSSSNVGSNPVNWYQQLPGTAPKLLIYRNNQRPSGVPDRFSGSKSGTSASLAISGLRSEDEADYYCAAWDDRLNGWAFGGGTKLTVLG
notes: as for B10
B12: M20-D02 S-A Fab LC V97G (Fab, V domains shown)
VH: B1 VH with I51V, G56A, S57R, S106A, K110D, S121T
VL: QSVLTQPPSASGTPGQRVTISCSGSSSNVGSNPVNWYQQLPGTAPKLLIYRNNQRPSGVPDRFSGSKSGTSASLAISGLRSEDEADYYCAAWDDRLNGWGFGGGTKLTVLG
notes: as for B10

target: T1, human C4.4a on transfected A549:hC4.4a …; test: cell-based or functional assay

| Binder | internalization t½ [min] into A549:hC4.4a cells (CypHer 5E labeled antibody) [min] |
| --- | --- |
| B1 | 39 |
| B2 | 22 |
| B3 | 55 |
| B4 | 30 |
| B5 | 33 |

target: T2, human C4.4a natively expressed on tumor …; test: FACS titration of IgG1 on NCI H292 cells
Method: FACS titration was performed in a 96 well microtiter plate, in which serial dilutions of the primary antibody in a volume of 50 W of FACS buffer (3% FCS, in PBS) were mixed with 50 μl of a cell suspension consisting of 2×10^5 cells/ml which had been detached with Cell Dissociation Solution (1×) Non-enzymatic (Sigma), and resuspended in FACS buffer. Incubation was performed at 4° C. for 1 hour with agitation. Cells were pelleted, washed with FACS buffer and resuspended in 100 μl/well of Phycoerythrin labeled goat anti human IgG (Dianova) solution in FACS buffer. Incubation and washing was performed as before. Analysis of cell-bound antibodies was done at the respective detection wavelength using the FACS Array device. EC₅₀ values were determined from fluorescence medians of duplicates using Swift 8.0 software.

| Binder | EC50 [nM] |
| --- | --- |
| B6 | 0.05 |
| B1 | 0.02 |
| B2 | 0.01 |
| B7 | 0.12 |
| B3 | 0.06 |
| B4 | 0.1 |
| B5 | 0.03 |

target: T3, murine C4.4a on transfected …; test: FACS titration of IgG1 on CHO-S:mC4.4a cells

| Binder | EC50 [nM] |
| --- | --- |
| B6 | 1.2 |
| B1 | 1 |
| B2 | 1.7 |
| B7 | 2 |
| B3 | 0.36 |
| B4 | 0.43 |
| B8 | 1.4 |
| B5 | 0.78 |

target: T4, recombinant soluble human C4.4a; test: SPR (Biacore T100), IgG1 captured by anti-human Fc, soluble C4.4a injected, 1:1 fit
Method: (§1) Binding affinities of anti C4.4 antibodies were determined by surface plasmon resonance analysis on a Biacore T100 instrument (GE Healthcare Biacore, Inc.). Antibodies were immobilized onto a CM5 sensor chip through an indirect capturing reagent, anti-human IgG Fc. Reagents from the “Human Antibody Capture Kit” (BR-1008-39, GE Healthcare Biacore, Inc.) were used as described by the manufacturer. Approximately 5000 RU monoclonal mouse anti-human IgG (Fc) antibody were immobilized per cell. Anti C4.4 antibodies were injected at a concentration of 5 μg/ml at 10 μl/min for 10 sec to reach a capturing level of approximately 200 to 600 RU. Various concentrations (400 nM, 200 nM, 100 nM, 50 nM, 25 nM, 12.5 nM, 6.25 nM, and 3.12 nM) in HEPES-EP buffer (GE Healthcare Biacore, Inc.) of human or murine C4.4a were injected over immobilized anti C4.4a antibodies at a flow rate of 60 μl/min for 3 minutes and the dissociation was allowed for 10 minutes. Sensograms were generated after in-line reference cell correction followed by buffer sample subtraction. The dissociation equilibrium constant (KD) was calculated based on the ratio of association (kₒₙ) and dissociation rated (koff) constants, obtained by fitting sensograms with a first order 1:1 binding model using Biavaluation Software (version 4.0).

| Binder | Kd [nM] |
| --- | --- |
| B6 | 4 |
| B1 | 6 |
| B2 | 10 |
| B7 | 2 |
| B3 | 60 |
| B4 | 4 |
| B8 | 1 |
| B9 | 29 |
| B5 | 9 |

target: T5, recombinant soluble murine C4.4a; test: as above
Method: as §1

| Binder | Kd [nM] |
| --- | --- |
| B6 | 10 |
| B1 | 21 |
| B2 | 24 |
| B7 | 42 |
| B3 | 120 |
| B4 | 1 |
| B8 | 2 |
| B9 | 56 |
| B5 | 22 |

target: T4, recombinant soluble human C4.4a; test: direct ELISA, Fab supernatant on coated human C4.4a, signal normalized to Fab quantity
Method: (§2) Cultures were diluted in 10% Smart Block in PBST and bound to the MTP plates for 1 h at 20° C. After washing with PBST, captured antibodies were incubated with a HRP-coupled anti-lambda antibody (Sigma, A5175) and detected by incubating the plate with 10 μM amplex red substrate (Invitrogen, A12222) for 30 minutes at 20° C. in the dark followed by fluorescence measurement. Determined quantification signals were checked to be in the dynamic range of an calibration series built up with concentrated parental Fab (M31-B01 or M20-D02-S-A) expression culture supernatant allowing a relative quantification of each individual Fab expression sample.
(§3) To determine the activity of the mutated Fab variants on recombinant soluble human or mouse C4.4a a direct ELISA assay format was used. Briefly, MTP plates (Nunc maxisorp black, 460518) were coated with 2 μg/ml either human or mouse C4.4a diluted in coating buffer (Candor Bioscience GmbH, 121125) and incubated for 15 h at 4° C. After washing 3 times with PBST, plates were blocked with 100% Smart Block (Candor Bioscience GmbH, 113500) for 1 h at 20° C. and the washing steps were repeated. For binding of the Fab antibody fragments 20 μl of culturing supernatants were added to the plates for 1 h at 20° C. followed by washing. In some cases the washing stringency was increased by an additional incubation step with 10% Smart Block in PBST for 90 min followed by washing 3 times with PBST (“process B” in Table 10b). Bound parental Fabs and variants were then detected by a HA-epitope tag specific antibody HRP conjugate (Bethyl, A190-108P). 10 μM amplex red substrate (Invitrogen, A12222) was added to the plates and the fluorescence signal was detected using a common fluorescence reader, e.g. Tecan Ultra. Quantity normalized affinity signals were calculated as ratios of background corrected affinity and quantification signals in the respective ELISA: (Signalaffinity−Backgroundaffinity)/(Signalquantity−Backgroundquantity). The resulting values correlate mainly with the affinity in a positive manner, whereas not normalized values correlate additionally with the concentration of the binding Fab in the sample.

| Binder | normalized affinity signal (average) |
| --- | --- |
| B10 | 0.64 |
| B11 | 1.32 |
| B12 | 1.21 |

target: T5, recombinant soluble murine C4.4a; test: direct ELISA, Fab supernatant on coated mouse C4.4a, signal normalized to Fab quantity
Method: as §2, §3

| Binder | normalized affinity signal (average) |
| --- | --- |
| B10 | 0.1 |
| B11 | 0.52 |
| B12 | 0.3 |

Source: patent US20120321619A1 (Bayer, published 2012)
